Consider one protein from publication doi:10.1101/2025.02.09.637349 (bioRxiv, 2025).

The series deals with the molecule itself. As to the kind of experiment: cryo-EM structure.

B1: Thermochromatium tepidum form-IAq RuBisCO large subunit (RbcL) (natural protein, UniProt A0A6I6DX30 1-472, looked up)
chain: MAKTYSAGVKEYRETYWMPNYTPKDTDILACFKITPQPGVPREEAAAAVAAESSTGTWTTVWTDLLTDLDYYKGRAYAIEDVPGDDTCFYAFIAYPIDLFEEGSVVNVFTSLVGNVFGFKAVRALRLEDVRFPIAYVMTCNGPPHGIQVERDILNKYGRPLLGCTIKPKLGLSAKNYGRAVYECLRGGLDFTKDDENVNSQPFMRWRQRFDFVMEAIDKAERETGERKGHYLNVTAPTPEEMYKRAEYAKEIGAPIIMHDYITGGFCANTGLAQWCRNNGVLLHIHRAMHAVLDRNPHHGIHFRVLTKILRLSGGDHLHTGTVVGKLEGDRQATLGWIDLLRESYVKEDRSRGIFFDQDWGAMPGAFAVASGGIHVWHMPALVTIFGDDSVLQFGGGTLGHPWGNAAGACANRVALEACIEARNQGIPIEKEGKEVLTKAAAHSPELKIAMETWKEIKFEFDSVDKLDVAHK
For orientation: stoichiometry N means a count of units in the complex or per binding partner. In the case of B1, the “stoichiometry N” value was 8.
